These results are taken from US20240100133A1, “ENZYMATICALLY INACTIVE GRANZYME A AND USES THEREFORE” (Saint Louis University, priority 2022, published 2024).

Numbering of substitutions follows the chain as printed. In names and notes the source's numbering stands. Read-outs that look alike come from different tables or passages of the source.

In experiment [1] the target is T1, CD14 (Homo sapiens, UniProt P08571).
T1 sequence (P08571 20-345): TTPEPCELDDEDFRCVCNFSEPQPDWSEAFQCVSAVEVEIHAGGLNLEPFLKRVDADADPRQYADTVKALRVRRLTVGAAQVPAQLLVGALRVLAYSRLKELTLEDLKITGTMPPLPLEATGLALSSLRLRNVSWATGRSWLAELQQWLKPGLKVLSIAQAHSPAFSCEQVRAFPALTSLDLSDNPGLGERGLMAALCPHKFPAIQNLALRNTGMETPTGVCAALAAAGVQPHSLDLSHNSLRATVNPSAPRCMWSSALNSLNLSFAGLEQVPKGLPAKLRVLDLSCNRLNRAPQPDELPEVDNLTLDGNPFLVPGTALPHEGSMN
The experiment in a line: Immunoprecipitation with anti-GzmA, probed for CD14. The settings on record: human monocyte lysates, infected and uninfected cells.

In experiment [2] the test system is mycobacteria within iMac-WT mouse cells. The class given is cell-based. The settings on record: human GzmA on mouse iMac-WT cells.
Experiment [3] deals with TLR4 (Homo sapiens, UniProt O00206). The experiment in a line: Immunoprecipitation with anti-GzmA, probed for TLR4. As to conditions: human monocyte lysates, infected and uninfected cells.
Sequence of TLR4 (O00206 24-839): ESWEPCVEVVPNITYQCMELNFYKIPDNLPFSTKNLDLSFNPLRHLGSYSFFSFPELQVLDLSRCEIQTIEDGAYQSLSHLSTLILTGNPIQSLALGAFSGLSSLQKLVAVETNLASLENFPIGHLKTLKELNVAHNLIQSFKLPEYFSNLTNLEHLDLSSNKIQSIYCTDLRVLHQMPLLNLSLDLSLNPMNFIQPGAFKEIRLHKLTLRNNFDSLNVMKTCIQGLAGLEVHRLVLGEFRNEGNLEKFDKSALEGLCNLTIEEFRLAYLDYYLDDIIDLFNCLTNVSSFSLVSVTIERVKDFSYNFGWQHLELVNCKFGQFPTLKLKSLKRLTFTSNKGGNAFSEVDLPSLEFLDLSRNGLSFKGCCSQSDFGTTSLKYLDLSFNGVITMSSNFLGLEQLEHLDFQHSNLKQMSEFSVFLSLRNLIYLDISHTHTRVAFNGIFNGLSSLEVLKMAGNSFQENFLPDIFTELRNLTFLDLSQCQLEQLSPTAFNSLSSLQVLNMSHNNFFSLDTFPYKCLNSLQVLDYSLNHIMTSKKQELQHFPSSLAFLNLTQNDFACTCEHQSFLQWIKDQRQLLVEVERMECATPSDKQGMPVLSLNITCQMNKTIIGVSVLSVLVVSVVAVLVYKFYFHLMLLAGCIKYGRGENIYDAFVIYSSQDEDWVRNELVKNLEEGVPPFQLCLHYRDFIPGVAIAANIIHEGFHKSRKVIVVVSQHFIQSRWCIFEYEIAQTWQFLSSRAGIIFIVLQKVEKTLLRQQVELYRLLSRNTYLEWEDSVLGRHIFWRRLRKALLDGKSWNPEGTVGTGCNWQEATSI
In experiment [4] the test system is Mtb H37Rv within primary CD14+ human monocytes. Format: cell-based, Mycobacterium tuberculosis. The settings on record: 200 nM GzmA, Mtb MOI 1, human monocytes.
The subject of experiment [5] is Connaught BCG within primary CD14+ human monocytes. The class given is cell-based. The settings on record: for inhibition of intracellular mycobacterial replication (MGIA): 72 h.
The nature of experiment [6]: BLT esterase assay for GzmA enzyme activity. Format: biochemical. The settings on record: 120 pM protein; substrate BLT. The method, then: BLT esterase protocol for measuring GzmA enzyme activity. BLT esterase assays and calculation of specific activity were adapted from (Rasi et al., 2021; Rasi et al., 2022). Substrate Z-L-Lys-SBz1 hydrochloride (Sigma #C3647-25MG) was added to 96 well plates with a serial dilution between 19.5-2,500 μM. Assay buffer consisted of 50 mM Tris, 154 mM NaCl, pH 7.5 in presence of […] (5,5-dithio-bis-(2-nitrobenzoic acid) (DTNB) chromophore. 120 pM of protein was added to each well and substrate hydrolysis was quantified by measuring the absorbance at 405 nm.

Experiment [7] has as its system LAMP1 (phagolysosome fusion). The experiment in a line: Confocal microscopy colocalization of BCG-GFP and LAMP1. The class given is cell-based, human. As to conditions: compared with untreated controls. On the procedure:
Confocal microscopy and Stimulation Emission Depletion (STED) experiments. For confocal and STED microscopy experiments, cells were incubated on coverslips pre-treated with Cell-Tak (Corning #354240). At the time of fixation, cells were washed twice with 1×RT PBS, and then fixed in 4% paraformaldehyde for 15 min at 37° C. Slides were washed thrice for 5 min at RT with 1×PBS, and then blocked with 5% donkey serum (Cat. #017-000-121, Jackson ImmunoResearch, West Grove, PA) with 0.25% Tween-20 (Cat. #P9416, Sigma, St. Louis, MO) and True Stain Fc blocker (added only during blocking step) (Cat. #426101, Biolegend, San Diego, CA). Cells were then incubated overnight at 4° C. with primary antibody anti-GzmA (Cat. #MAB29051, R&D, Minneapolis, MN) at 12.5 μg/mL in blocking buffer, anti-PDIA1 (Cat. #MAB4236, R&D, Minneapolis, MN) at 12.5 μg/mL in blocking buffer, anti-LAMP1 at 12.5 ug/ml (Cat. #MAB4800, R&D, Minneapolis, MN), or anti-ATPSH (Cat. #ab110275, Abcam, Cambridge, UK) at 5 μg/mL in blocking buffer. To remove unbound antibody, cells were washed four times with 1×PBS at RT, and then incubated in the dark for 2 h with secondary antibody conjugated with Alexa Fluor 594 (Cat. #715-545-150, Jackson Immunoresearch, West Grove, PA) at 1:100 or Atto 647N (Cat. #ASR3248, Abcepta, San Diego, Ca) at 1:100. […]

In experiment [8] the test system is mycobacteria BCG-GFP. The class given is binding.

B1: GzmA-C93S: Granzyme A variant with cysteine 93 substituted with serine; forms only monomers, retains enzymatic activity (protein)
chain: IIGGNEVTPHSRPYMVLLSLDRKTICAGALIAKDWVLTAAHCNLNKRSQVILGAHSITREEPTKQIMLVKKEFPYPSYDPATREGDLKLLQLMEKAKINKYVTILHLPKKGDDVKPGTMCQVAGWGRTHNSASWSDTLREVNITIIDRKVCNDRNHYNFNPVIGMNMVCAGSLRGGRDSCNGDSGSPLLCEGVFRGVTSFGLENKCGDPRGPGVYILLSKKHLNWIIMTIKGAV
modifications: left off: small tags and cut ends
For B1, the “binding to CD14 (immunoprecipitation)” value in experiment [1] is “does not”. Moreover, the “inhibition of mycobacterial growth in iMac-WT cells” value in experiment [2] was “did not”. The “binding to TLR4 (immunoprecipitation)” value in experiment [3] is “does not”. Besides, in experiment [4], the “inhibition of intracellular Mtb (MGIA)” value is given as “did not”. Besides, in experiment [5], the “effect of monomeric GzmA on protective effects of GzmA-WT (mixing experiment)” value was “partially inhibit the protective effects of GzmA-WT”, the “intracellular replication of pre-opsonized mycobacteria (excess protein removed)” value is “cannot” and the “inhibition of intracellular mycobacterial replication (MGIA)” value is “loses its inhibitory activity”. In addition, the “enzymatic (esterase) activity, cleavage of BLT” value in experiment [6] is reported as “cleaved similar amounts of BLT as GzmA-WT”. In addition, in experiment [7], the “colocalization between LAMP1 and BCG-GFP” value is reported as “fails to direct mycobacteria into the phagolysosome”. In addition, in experiment [8], the binding to mycobacteria entry is given as “able to bind mycobacteria”.

B2: GzmA-S195A (protein)
chain: B1 chain with S77C, S184A
modifications: left off: small tags and cut ends
On to B2, for which the “inhibition of mycobacterial growth in iMac-WT cells” value in experiment [2] was “modestly inhibit mycobacterial growth”. In addition, the “inhibition of intracellular Mtb (MGIA)” value in experiment [4] is listed as “inhibited Mtb”. In addition, the “inhibition of intracellular Mtb (MGIA)” value in experiment [4] (listed as recombinant enzymatically inactive GzmA) is given as “very potent at protecting against Mtb intracellular infection”. Further, in experiment [5], the “GzmA inhibitory activity after CD14 neutralization (MGIA)” value was “lost their inhibitory activity”, the “GzmA inhibitory activity after TLR2 neutralization (MGIA)” value is recorded as “does not reverse” and the “inhibition of intracellular mycobacterial replication (MGIA)” value is on record as “inhibits the intracellular replication of mycobacteria”. In addition, the “enzymatic (esterase) activity, cleavage of BLT” value in experiment [6] is given as “loses its enzymatic activity”. Further, in experiment [8], the binding to mycobacteria result is “bound mycobacteria”.
